Columns and labels:
[1] = molecular target: T1, extracellular domain (ECD) of human IGSF11 (VSIG3), recombinant (human, UniProt Q5DX21 23-241); experiment: ELISA RFU 0.1-0.5
T1 construct: biotinylated where captured on streptavidin; tags of the reagent not always stated; also called IGSF11 (ECD domain); ECD-IGSF11
T1 sequence: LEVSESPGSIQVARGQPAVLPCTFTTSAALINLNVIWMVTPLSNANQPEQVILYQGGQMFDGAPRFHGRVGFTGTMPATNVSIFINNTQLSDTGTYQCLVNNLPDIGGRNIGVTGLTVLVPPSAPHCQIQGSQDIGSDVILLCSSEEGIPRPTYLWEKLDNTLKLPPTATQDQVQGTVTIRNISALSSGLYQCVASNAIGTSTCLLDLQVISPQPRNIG

[2] = molecular target: T2, ECD of murine IGSF11, recombinant biotinylated (mouse, UniProt P0C673 23-240); experiment: ELISA RFU 0.1-0.5
T2 construct: whole entry named; also called Mouse IGSF11
T2 sequence: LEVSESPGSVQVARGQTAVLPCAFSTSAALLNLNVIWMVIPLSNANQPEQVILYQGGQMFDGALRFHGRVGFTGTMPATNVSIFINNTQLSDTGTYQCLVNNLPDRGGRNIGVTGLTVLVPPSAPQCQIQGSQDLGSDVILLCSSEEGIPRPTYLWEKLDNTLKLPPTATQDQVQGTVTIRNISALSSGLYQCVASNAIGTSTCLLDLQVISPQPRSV

[3] = molecular target: T3, full-length ECD of human IGSF11 fused to murine Fc (human, UniProt Q5DX21 23-241); experiment: IgG ELISA;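 further: ELISA binding of IgG antibodies to plate-coated IGSF11 Fc-fusion proteins (full-length ECD, IgV or IgC2 domain), detected via HRP-labelled anti-human IgG with TMB development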
T3 construct: also called Fc-fusion IGSF11 ECD; not shown: murine Fc
T3 sequence: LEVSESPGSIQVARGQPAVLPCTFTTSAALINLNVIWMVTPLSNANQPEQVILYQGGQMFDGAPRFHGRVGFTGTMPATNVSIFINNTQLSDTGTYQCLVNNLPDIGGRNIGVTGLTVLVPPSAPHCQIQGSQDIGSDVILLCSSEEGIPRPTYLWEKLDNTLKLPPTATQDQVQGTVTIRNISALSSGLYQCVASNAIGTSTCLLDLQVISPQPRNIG

[4] = molecular target: T4, IgC2 domain of human IGSF11 fused to murine IgG2a Fc (human, UniProt Q5DX21 137-241); experiment: IgG ELISA;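 further: ELISA binding of IgG antibodies to plate-coated IGSF11 Fc-fusion proteins (full-length ECD, IgV or IgC2 domain), detected via HRP-labelled anti-human IgG with TMB development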
T4 construct: not shown: murine IgG2a Fc-region
T4 sequence: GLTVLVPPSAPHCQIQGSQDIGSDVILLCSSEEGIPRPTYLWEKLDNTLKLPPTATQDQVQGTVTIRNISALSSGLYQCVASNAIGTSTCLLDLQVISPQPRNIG

[5] = molecular target: T2, ECD of murine IGSF11, recombinant …; experiment: Fab ELISA
Streptavidin = Streptavidin (UniProt P22629 37-163, limits assumed); experiment: Fab ELISA
Sequence of Streptavidin (P22629 37-163 limits assumed): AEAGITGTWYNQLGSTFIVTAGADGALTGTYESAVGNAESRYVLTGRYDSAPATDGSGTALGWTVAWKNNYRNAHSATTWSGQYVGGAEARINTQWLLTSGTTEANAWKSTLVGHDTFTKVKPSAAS

B1: A-033 (scFv format) (scFv, V domains shown)
VH: QVQLVQSGAEVKKPGASVKVSCKASGYTFTSYGISWVRQAPGQGLEWMGWISAYNGNTNYAQKLQGRVTMTTDTSTSTAYMELRSLRSDDTAVYYCARDHSIVGATTFDYWGQGTLVTVSS
VL: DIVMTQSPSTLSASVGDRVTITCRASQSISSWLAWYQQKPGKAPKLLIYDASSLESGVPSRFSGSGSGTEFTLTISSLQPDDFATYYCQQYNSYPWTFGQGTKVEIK
notes: scFv
ELISA binding signal (RFU) [1]: 0.1 to 0.5 rfu | ELISA binding signal (RFU) [2]: 0.1 to 0.5 rfu

B2: A-027 (scFv format) (scFv, V domains shown)
VH: QVQLVQSGAEVKKPGSSVKVSCKASGGTFSSYAISWVRQAPGQGLEWMGGIIPIFGTANYAQKFQGRVTITADKSTSTAYMELSSLRSEDTAVYYCARARGSTWGYFDYWGQGTLVTVSS
VL: EIVLTQSPASLSLSPGERVTLSCRASQSVSNYLAWYQQKPGQAPRLLIYDASNRATGIPARFSGSGSGTDFTLTISSLEPEDFAVYYCQQRDNWPLTFGGGTKVEIK
notes: scFv
ELISA binding signal (RFU) [1]: 0.1 to 0.5 rfu | ELISA binding signal (RFU) [2]: 0.1 to 0.5 rfu

B3: A-003 (scFv format) (scFv, V domains shown)
VH: VQLVQSGAEVKKPGSSVKVSCKASGGTFSSYAISWVRQAPGQGLEWMGGIIPIFGTANYAQKFQGRVTITADESTSTAYMELSSLRSEDTAVYYCASPRIQLWAAGGFDYWGQGTLVTVSS
VL: QSALTQPASVSGSPGQSITISCTGTSSDVGGYNLVSWYQQHPGKAPKLMIYDVSNRPSGVSNRFSGSKSGNTASLTISGLQAEDEADYYCSSFTTSTTLVFGGGTKLTVL
notes: scFv
ELISA binding signal (RFU) [1]: 0.1 to 0.5 rfu | ELISA binding signal (RFU) [2]: 0.1 to 0.5 rfu

B4: C-011 (IgG1 format) (antibody, V domains shown)
VH: QVQLVQSGAEVKKPGSSVKVSCKASGGTFSSYAISWVRQAPGQGLEWMGGIIPIFGTANYAQKFQGRVTITADESTSTAYMELSSLRSEDTAVYYCARHSTPSFLQYWGQGTLVTVSS
VL: SYELTQPPSVSVSPGQTASITCSGDKLGDKYASWYQQKPGQSPVLVIYQDSKRPSGIPERFSGSNSGNTATLTISGTQAEDEADYYCAVYPAHASARWVFGGGTKLTVL
EC50 [3]: < 1 nM | EC50 [4]: < 1 nM

B5: A-031 (scFv format) (scFv, V domains shown)
VH: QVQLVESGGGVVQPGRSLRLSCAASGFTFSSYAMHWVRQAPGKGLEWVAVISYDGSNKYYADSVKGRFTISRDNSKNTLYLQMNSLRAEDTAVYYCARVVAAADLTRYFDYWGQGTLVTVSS
VL: EIVLTQSPGTVSLSPGERATLSCRASQSVPKNYLAWFQQKPGQAPRLVIHTASSRAPGIPDRFTGSGSGTDFTLTISRLEPEDFAVYYCQQYGTSPNTFGQGTKLDIK
notes: scFv
ELISA binding signal (RFU) [1]: 0.1 to 0.5 rfu | ELISA binding signal (RFU) [2]: 0.1 to 0.5 rfu

B6: C-022 (IgG1 format) (antibody, V domains shown)
VH: EVQLLESGGGLVQPGGSLRLSCAASGFTFSSYAMSWVRQAPGKGLEWVSAISGSGGSTYYADSVKGRFTISRDNSKNTLYLQMNSLRAEDTAAYYCARMAAGASWGTFDYWSQGTLVTVSS
VL: DIQMTQSPSSLSASVGDRVTITCRASQSISSYLNWYQQKPGKAPKLLIYAASSLQSGVPSRFSGSGSGTDFTLTISSLQPEDFATYYCQQRSGSPLTFGQGTKVEIK
EC50 [3]: 1 to 20 nM | EC50 [4]: 1 to 20 nM

B7: A-028 (scFv format) (scFv, V domains shown)
VH: QVQLVQSGAEVKKPGSSVKVSCKASGGTFSSYAISWVRQAPGQGLEWMGGIIPIFGTANYAQKFQGRVTITADESTSTAYMELSSLRSEDTAVYYCARVGVEYQLLWYFDYWGQGTLVTVSS
VL: DIQMTQSPSSLSASVGDRVTLTCRTSQTISNYLNWYQQKPGKAPKLLVYAASNLQSWVPSRFSGSGSGTDFTLTISSLQPEDFATYYCQQSYNASFGGGTKVEFK
notes: scFv
ELISA binding signal (RFU) [1]: 0.1 to 0.5 rfu | ELISA binding signal (RFU) [2]: 0.1 to 0.5 rfu

B8: C-016 (Fab format) (Fab, V domains shown)
VH: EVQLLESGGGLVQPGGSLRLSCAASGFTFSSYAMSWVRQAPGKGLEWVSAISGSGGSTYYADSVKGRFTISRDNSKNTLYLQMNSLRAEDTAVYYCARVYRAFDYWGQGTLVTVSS
VL: ASVLTQPPSVSAAPGQKVTISCSGSSSNIGNNYVSWYQQLPGTAPKLLIYDNNKRPSGIPDRFSGSKSGTSATLGITGLQAEDEADYYCHLYTEAESHWVFGGGTKLTVL
notes: Fab from E. coli lysate
A450 [5]: < 1 | A450 (Streptavidin): < 0.1

B9: C-002 (Fab format) (Fab, V domains shown)
VH: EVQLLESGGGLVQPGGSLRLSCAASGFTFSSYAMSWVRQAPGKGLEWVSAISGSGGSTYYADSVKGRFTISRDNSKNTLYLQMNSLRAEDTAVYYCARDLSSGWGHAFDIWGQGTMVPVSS
VL: ASVLTQPPSVSAAPGQKVTISCSGSSSNIGNNYVSWYQQLPGTAPKLLIYDNNKRPSGIPDRFSGSKSGTSATLGITGLQAEDEADYYCLSYTTSEHHLVFGGGTKLTVL
notes: Fab from E. coli lysate
A450 [5]: < 1 | A450 (Streptavidin): < 0.1

B10: C-017 (Fab format) (Fab, V domains shown)
VH: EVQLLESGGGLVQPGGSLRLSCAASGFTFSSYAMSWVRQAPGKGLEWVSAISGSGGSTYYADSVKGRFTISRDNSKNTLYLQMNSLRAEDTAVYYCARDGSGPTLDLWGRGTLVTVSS
VL: DIQMTQSPSSLSASVGDRVTITCRASQSISSYLNWYQQKPGKAPKLLIYAASSLQSGVPSRFSGSGSGTDFTLTISSLQPEDFATYYCQQHRYIPPWTFGQGTKVEIK
notes: Fab from E. coli lysate
A450 [5]: < 1

B11: C-020 (Fab format) (Fab, V domains shown)
VH: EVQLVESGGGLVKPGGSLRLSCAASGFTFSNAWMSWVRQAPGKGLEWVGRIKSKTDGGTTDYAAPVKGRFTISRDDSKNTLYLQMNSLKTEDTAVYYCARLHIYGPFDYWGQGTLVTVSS
VL: SYELTQPPSVSVSPGQTASITCSGDKLGDKYASWYQQKPGQSPVLVIYQDSKRPSGIPERFSGSNSGNTATLTISGTQAEDEADYYCLSYLARSGSVVFGGGTKLTVL
notes: Fab from E. coli lysate
A450 [5]: < 1

B12: C-024 (Fab format) (Fab, V domains shown)
VH: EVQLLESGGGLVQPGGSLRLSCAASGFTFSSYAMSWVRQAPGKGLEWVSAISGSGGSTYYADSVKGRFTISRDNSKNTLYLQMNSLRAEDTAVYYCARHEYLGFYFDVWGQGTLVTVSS
VL: SYELTQPPSVSVSPGQTASITCSGDKLGDKYASWYQQKPGQSPVLVIYQDSKRPSGIPERFSGSNSGNTATLTISGTQAEDEADYYCLASHRLTLNYVFGGGTKLTVL
notes: Fab from E. coli lysate
A450 [5]: < 1

B13: C-010 (IgG1 format) (antibody, V domains shown)
VH: QVQLVQSGAEVKKPGSSVKVSCKASGGTFSSYAISWVRQAPGQGLEWMGGIIPIFGTANYAQKFQGRVTITADESTSTAYMELSSLRSEDTAVYYCARGYGEYYPAFDVWGQGTLVTVSS
VL: SYELTQPPSVSVSPGQTASITCSGDKLGDKYASWYQQKPGQSPVLVIYQDSKRPSGIPERFSGSNSGNTATLTISGTQAEDEADYYCASYAHTHSTWVFGGGTKLTVL
EC50 [3]: 20 to 100 nM | EC50 [4]: 1 to 20 nM

B14: C-015 (IgG1 format) (antibody, V domains shown)
VH: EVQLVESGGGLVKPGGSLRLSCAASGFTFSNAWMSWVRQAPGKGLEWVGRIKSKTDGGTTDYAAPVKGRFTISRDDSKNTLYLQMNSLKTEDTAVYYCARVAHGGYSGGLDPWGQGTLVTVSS
VL: SYELTQPPSVSVSPGQTASITCSGDKLGDKYASWYQQKPGQSPVLVIYQDSKRPSGIPERFSGSNSGNTATLTISGTQAEDEADYYCSSTGTAHTLAVFGGGTKLTVL
EC50 [3]: 20 to 100 nM | EC50 [4]: 1 to 20 nM

B15: C-018 (IgG1 format) (antibody, V domains shown)
VH: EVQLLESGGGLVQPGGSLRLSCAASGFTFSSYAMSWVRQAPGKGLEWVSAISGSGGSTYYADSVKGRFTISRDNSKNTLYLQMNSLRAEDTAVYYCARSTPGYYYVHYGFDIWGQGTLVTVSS
VL: SYELTQPPSVSVSPGQTASITCSGDKLGDKYASWYQQKPGQSPVLVIYQDSKRPSGIPERFSGSNSGNTATLTISGTQAEDEADYYCQAWSTSTHSWVFGGGTKLTVL
EC50 [3]: 1 to 20 nM | EC50 [4]: < 1 nM

B16: A-032 (scFv format) (scFv, V domains shown)
VH: QVQLVQSGAEVKKPGASVKVSCKASGYTFTGYYMHWVRQAPGQGLEWMGWMNPNSGNTGYAQKFQGRVTMTRNTSISTAYMELSSLRSEDTAVYYCARGGQQQLVLDDYWGQGTLVTVSS
VL: not shown
ELISA binding signal (RFU) [1]: 0.1 to 0.5 rfu | ELISA binding signal (RFU) [2]: 0.1 to 0.5 rfu

B17: A-037 (scFv format) (scFv, V domains shown)
VH: QVQLVQSGAEVKKPGASVKVSCKASGYTFTGYYMHWVRQAPGQGLEWMGWINPNSGNTGYAQKFQGRVTMTRNTSISTAYMELSSLRSEDTAVYYCARGGQQQLVLDDYWGQGTLVTVSS
VL: NFMLTQPHSVSESPGKTVTISCTGSSGSIASNYVQWYQQRPGSAPTTVIYEDNQRPSGVPDRFSGSIDSSSNSASLTISGLKTEDEADYYCQSYDSSNQRVFGGGTKLTVL
notes: scFv
ELISA binding signal (RFU) [1]: 0.1 to 0.5 rfu | ELISA binding signal (RFU) [2]: 0.1 to 0.5 rfu

B18: A-030 (scFv format) (scFv, V domains shown)
VH: QVQLVQSGAEVKKPGASVKVSCKASGYTFTGYYMHWVRQAPGQGLEWMGWINPNSGNTGYAQKFQGRVTMTRNTSISTAYMELSSLRSEDTAVYYCARGGQQQLVLDDYWGQGTLVTVSS
VL: DIQLTQSPSTLSASVGDRVTITCRASQSIGGWLAWYQHKPGKAPKLLIYAASSLQSGVPSRFSGSGSGTDFTLTISSLQPEDFATYYCRQSYSTPPTFGQGTKVEIK
notes: scFv
ELISA binding signal (RFU) [1]: 0.1 to 0.5 rfu | ELISA binding signal (RFU) [2]: 0.1 to 0.5 rfu

B19: A-036 (scFv format) (scFv, V domains shown)
VH: QVQLVQSGAEVKKPGASVKVSCKASGYTFTGYYMHWVRQAPGQGLEWMGWINPNSGGTNYAQKFQGRVTMTRNTSISTAYMELSSLRSEDTAVYYCARGGQQQLVLDDYWGQGTLVTVSS
VL: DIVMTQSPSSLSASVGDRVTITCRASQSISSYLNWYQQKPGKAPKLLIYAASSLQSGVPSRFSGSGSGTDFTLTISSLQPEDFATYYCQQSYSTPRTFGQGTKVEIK
notes: scFv
ELISA binding signal (RFU) [1]: 0.1 to 0.5 rfu | ELISA binding signal (RFU) [2]: 0.1 to 0.5 rfu

B20: A-025 (scFv format) (scFv, V domains shown)
VH: QVQLVQSGAEVKKPGSSVKVSCKASGGTFSSYAISWVRQAPGQGLEWMGGIIPIFGTANYAQKFQGRVTITADESTSTAYMELTSLRSEDTAVYYCARGGWLRQNWFDPWGQGTLVTVSS
VL: SSELTQDPAVSVALGQTVRITCQGDSLRSYYASWYQQKPGQAPVLVIYGKNNRPSGIPDRFSGSSSGNTASLTITGAQAEDEADYYCNSRDSSGNHPRVFGGGTKLTVL
notes: scFv
ELISA binding signal (RFU) [1]: 0.1 to 0.5 rfu | ELISA binding signal (RFU) [2]: 0.1 to 0.5 rfu

B21: A-029 (scFv format) (scFv, V domains shown)
VH: QVQLVQSGAEVKKPGSSVKVSCKASGGTFSSYAISWVRQAPGQGLEWMGGIIPIFGTANYAQKFQGRVTITADESTGTAYMELSSLRSEDTAVYYCARSYYYYYGMDVWGQGTTVTVSS
VL: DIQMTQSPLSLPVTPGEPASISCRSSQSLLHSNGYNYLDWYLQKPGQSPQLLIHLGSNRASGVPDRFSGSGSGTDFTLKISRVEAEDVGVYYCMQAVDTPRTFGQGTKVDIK
notes: scFv
ELISA binding signal (RFU) [1]: 0.1 to 0.5 rfu | ELISA binding signal (RFU) [2]: 0.1 to 0.5 rfu

Reference: patent US20220372138A1 (IOMX THERAPEUTICS, published 2022)
